The target of the assay is CARD-deleted NLRC4 (mouse) (UniProt Q3UP24). Briefly: cryo-EM structure.

Where “and” joins values, the source holds several entries; their conditions need not be identical. Equal entries are not always repeated.

As to “CARD-deleted NLRC4 (from UniProt Q3UP24 1-1024) (domain or fragment)”, the blades of the disk (one of them taken to be NAIP2) was 11 blades and 12 blades and 10 blades.

Values taken from publication PMC4640189.
